The record followed here is the nanobody polyreactivity screen of Harvey et al. (2022).

The nature of this series: yeast display, Sf9 membrane polyspecificity reagent, FACS + sequencing; frameworks hold sequencing errors. Summed up:
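Galactose induction of a Saccharomyces cerevisiae BJ5465 synthetic nanobody display library ran 36–48 hours. The cells were then stained for 1 hour at 4 °C with 10% biotinylated, detergent-solubilized Sf9 membrane reagent, pulled down on streptavidin microbeads and FACS-sorted into low and high (top ~1%) gates on expression and reagent-binding fluorescence. Labels for polyreactivity follow the gate of origin.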
For “QVQLVESGGGLVQAGGSLRLSCAASGRTFRYYAMGWYRQAPGKERELVAAISQTGARTYYADSVKGRFTISRDNAKNTVYLQMNSLKPEDTAVYYCNAYSRSGHQSDGYDYWGQGTQVTVSS”, the “polyreactivity (PSR sort gate)” value was “high polyreactivity”. The result for “QVQLVESGGGLVQAGGSLRLSCAASGRTFRYYAMGWYRQAPGKERELVAAISSGGNTYYADSVKGRFTISRDNAKNTVYLQMNSLKPEDTAVYYCAAKVHYSAHRFGYWGQGTQVTVSS” reads “high polyreactivity”; that for “QVQLVESGGGLVQAGGSLRLSCAASGRTFRYYAMGWYRQAPGKERELVAAISSGGSTNYADSVKGRFTISRDNAKITVYLQMNSLKPEDTAVYYCAALWSGNKFNYWGQGTQVTVSS”, “low polyreactivity”; that for “QVQLVESGGGLVQAGGSLRLSCAASGRTFRYYAMGWYRQAPGKERELVAAISSSGDRTYYADSVKGRFTISRDNAKKTVYLQMNSLKPEDTAVYYCAADRGARGDYWGQGTQVTVSS”, “high polyreactivity”. The result for “QVQLVESGGGLVQAGGSLRLSCAASGRTFRYYAMGWYRQAPGKERELVAAITSGGSTYYADSVKGRFTISRDNAKNTVYLQMNSLKPEDTAVYYCAAVPAGLWATYPQFRYGYWGQGTQVTVSS” reads “high polyreactivity”. The result for “QVQLVESGGGLVQAGGSLRLSCAASGRTFRYYAMGWYRQAPGKERELVADISWSGGRTTYADSVKGRFTISRDNAKNTVYLQMNSLKPEDTAVYYCAKVLYYPSNDYWGQGSQVTVSS” reads “high polyreactivity”; that for “QVQLVESGGGLVQAGGSLRLSCAASGRTFRYYAMGWYRQAPGKERELVATISSGGSTNYADSVKGRFTISRDNAKNTVYLQMNSLKPEDTAVYYCNARRSTDPARYYWGQGTQVTVSS”, “high polyreactivity”; that for “QVQLVESGGGLVQAGGSLRLSCAASGRTFRYYTMGWYRPAPGKEREFVAAISSTGGTYYADSVKGRFTISRDNAKNTVYLQMNSLKPEDTAVYYCAATFIQVVVNVQLYDYDYWGQGTQVTVSS”, “low polyreactivity”. Consider “QVQLVESGGGLVQAGGSLRLSCAASGRTFRYYTMGWYRQAPGKEREFVAAISSTGGTYYADSVKGRFTISRDNAKNTVYLQMNSQKPEDTAVYYCAATVIQVVVNVQLYDYDYWGQGTEVTVSS”, for which the “polyreactivity (PSR sort gate)” value is listed as “low polyreactivity”.

On to “QVQLVESGGGLVQAGGSLRLSCAASGRTFRYYTMGWYRQAPGKERELVASISWSGGSTYYADSVKGRFTISRDNAKNTVYLQMNSLKPEDTAVYYCNAVYGYRGVTNMDYWGQGTQVTVSS”, for which the “polyreactivity (PSR sort gate)” value is reported as “high polyreactivity”. To “QVQLVESGGGLVQAGGSLRLSCAASGRTFRYYVMGWYIQAPAKERELVARISYSAGSTYYADSVKGRFTISRDNAKKTVYFQMNSLKPEDTAVDYCNAGGNFKDYGHYYWGQCTQVTVSS” belongs “high polyreactivity”; to “QVQLVESGGGLVQAGGSLRLSCAASGRTFRYYVMGWYRPATGTERELVAGISGSGGNTYYADSVKGRFTISRDNAKNTVYLQMNSLKPEDTAVYYCNAYSPYAEYDYWGQGTQVTVSS”, “high polyreactivity”; to “QVQLVESGGGLVQAGGSLRLSCAASGRTFRYYVMGWYRQAPGKERELVASITWRGTSTYYADSVKGRFTISRDNAKNTVYLQMNSLKPEDTAVYYCNAQGVYFRWSGYDYWGQGTQVTVSS”, “high polyreactivity”. The result for “QVQLVESGGGLVQAGGSLRLSCAASGRTFRYYVMGWYRQAPGKERELVATITSNGDSTYYADSVKGRFTISRDNAKNTVYLQMNSLKPEDTAVYYCAVRWRDYRGSYRGFEYWGQGTQVTVSS” reads “high polyreactivity”. To “QVQLVESGGGLVQAGGSLRLSCAASGRTFSAYAMGWYRQAPGKERELVAAISRRGGSTYYADSVKGRFTISRDNAKNTVYLQMNSLKPEDTAVYYCAAKIYYRSRAEMDWGQGTQVTVSS” belongs “high polyreactivity”.

With “QVQLVESGGGLVQAGGSLRLSCAASGRTFSDNAMGWYRQAPGKERELVAASSRSGGRTYYADSVKGRFTISRDNAKNTVYLQMNSLKPEDTAVYYCAAAPSVSGTRLYEYWGQGTQVTVSS”, the “polyreactivity (PSR sort gate)” value is recorded as “high polyreactivity”.

As for “QVQLVESGGGLVQAGGSLRLSCAASGRTFSDYAMGWYRQAPAKERELVAAISKSGGRTYYADSVKGRFTISRDNAKNTVYLQMNSLKPEDTAVYYCAADPLTELAFYSWGQGTQVTVSS”, the “polyreactivity (PSR sort gate)” value was “high polyreactivity”. To “QVQLVESGGGLVQAGGSLRLSCAASGRTFSGNAMGWYRQAPGKERELVASISTSTDGTYYADSVKGRFTISRDNAKNTVYLQMNSLKAEDTAVYYCTTTTYHWYYYRWEIFDYRGQGTQVTVSS” belongs “low polyreactivity”; to “QVQLVESGGGLVQAGGSLRLSCAASGRTFSGNTMGWYRQAPGKERELVAVINSGTRTYYADSVKGRFTISRDNAKNTVYLHMNSLKPEDTAVYYCATRSKSPSTKYGYWGQGTQVTVSS”, “high polyreactivity”.

For “QVQLVESGGGLVQAGGSLRLSCAASGRTFSGYAMGWYRQAPGKERELVAAIRWSGGSTYYADSVKGRFTISRDNAKNTVYLQMNSLKPEDTAVYYCATRDYYYRYGYWGQGTQVTVSS”, the “polyreactivity (PSR sort gate)” value is given as “high polyreactivity”. The result for “QVQLVESGGGLVQAGGSLRLSCAASGRTFSGYAMGWYRQAPGKERELVAGITWNGGRTYYADSVKGRFTISRDNAKNTVSLQMNSLKPEDTAVYYCNKLGAVYPKYGYWGQGTQVTVSS” reads “high polyreactivity”; that for “QVQLVESGGGLVQAGGSLRLSCAASGRTFSGYAMGWYRQAPGKERELVASITYSGGSTYYADSVKGRFTISRDNAKNTVYLQMNSLKPEDTAVYYCNARSSGKGRSNAYYKGHGYWGQGTQVTVSS”, “high polyreactivity”; that for “QVQLVESGGGLVQAGGSLRLSCAASGRTFSGYAMVWYRQAPGKERELVAAISSGGGSTYYADSVKGRFTISRDNAKNTVYLQMNSLKPEDTAVYYCAADGYPGDYDYWGQGTQVTVSS”, “low polyreactivity”. The result for “QVQLVESGGGLVQAGGSLRLSCAASGRTFSHYAMGSYRQAPGKEREFVADITRSGGSTYYADSVKGRFTISRDNAKNTVYLQMNSLKPEDTAVYYCNAESYFEIYDYWGQGTQVTVSS” reads “high polyreactivity”; that for “QVQLVESGGGLVQAGGSLRLSCAASGRTFSHYAMGWYRQAPGKERELVAAINTRTGTTYYADSVKGRFTISRDNAKNTVYLQMNSLKPEDTAVYYCNAVPYYSYQGWILVGDYDYWGQGTQVTVSS”, “low polyreactivity”; that for “QVQLVESGGGLVQAGGSLRLSCAASGRTFSKYAMAWYRQAPGKERELVAAISSSGGSTYYADSVKGRFTISRDNAKNTVYLQMNSLKPEDTAVYYCATRVYPRYWFTTRYRYDYWGQGTQVTVSS”, “low polyreactivity”. To “QVQLVESGGGLVQAGGSLRLSCAASGRTFSKYAMGWYRQAPGKERELVAAISSGGSTNYADSVKGRFTISRDNAKNTVYLQMISLKPEDTAVYYFARTTNWRHSYAYYYLHGHDYWGQGTQVTVSS” belongs “high polyreactivity”. On to “QVQLVESGGGLVQAGGSLRLSCAASGRTFSKYAMGWYRQAPGKERELVAAITRSGSSTYYADSVKGRFTISRDNAKNTVYLQMNCLKPEDTAVYYCAADRYLRSSGSAPDYGYWGQGTQVTVSS”, for which the “polyreactivity (PSR sort gate)” value is on record as “low polyreactivity”. The result for “QVQLVESGGGLVQAGGSLRLSCAASGRTFSKYAMGWYRQAPGKERELVAAITSGGGTYYADSVKGRFTISRDNAKNTVYLQMNSLKPEDTAVYYCAVSVTTVSTYDYWGQGTQVTVSS” reads “low polyreactivity”; that for “QVQLVESGGGLVQAGGSLRLSCAASGRTFSLNAMGWYRQAPGKERELVAAINRGGTTYYADSVKGRFTISRDNAKNTVYLQMNSLKPEDTAVYDCAARVWGRWAGSYAWWHGYNSWGQGTQVSVSS”, “high polyreactivity”; that for “QVQLVESGGGLVQAGGSLRLSCAASGRTFSLYAMGRYRQAPGKERELVAGISSSGGSTYYADSVKGRFTISRDNAKNTVYLQMNSLKQEDTAFYYCAAYRNTVIRNSDYWGQGTQVTVSS”, “high polyreactivity”.

For the sequence “QVQLVESGGGLVQAGGSLRLSCAASGRTFSLYAMGWSRPAPGKERELVAAITRRGGSTYYADSVKGRFTMSRDNAKNTVYLQMNSLKPEDTAVYYCAADSGYPWELDYWGQGTEVTVSS”, the “polyreactivity (PSR sort gate)” value is recorded as “low polyreactivity”. The result for “QVQLVESGGGLVQAGGSLRLSCAASGRTFSPNTMGWYRQAPGKEREFVAAITASGDSTYYADSVKGRFTISRDNAKNTVYLQMNSLKPEDTAVYYCDTDSNWYWGFNYWGQGTKVTVSS” reads “low polyreactivity”. For the sequence “QVQLVESGGGLVQAGGSLRLSCAASGRTFSPYMGWYRQAPGKEGELVAAISKSGGRTYYADSVKGRFTISRDNAKNTVYLQMNSLKPEDTAVYYCATTGNNYYYALYGYWGQGTQVTVSS”, the “polyreactivity (PSR sort gate)” value is listed as “low polyreactivity”. The result for “QVQLVESGGGLVQAGGSLRLSCAASGRTFSQYDMGWYRQAPGKERELVAAISWSGGRTYYADSVKGRFTISRDNAKNTVYLQMNSLKPEDTAVYYCAAAYSWIRSPYNDPNRGYDYWGQGTQVTVSS” reads “low polyreactivity”; that for “QVQLVESGGGLVQAGGSLRLSCAASGRTFSRKAMRWYRQAPGKERELVASISRSGGSTYYADSVKGRFTISRDIAKNTVYLQMNSLKPEDTAVYYCAASYWHRRYDYWGQGTQVTVSS”, “high polyreactivity”; that for “QVQLVESGGGLVQAGGSLRLSCAASGRTFSRNAMGWYRQAPGKERELVAAITSRGGTTYYADSVKGRFTISRDNAKNTVYLQMNSLKPEDTAVYYCNAAPRARSKVSYDYWGQGTQVTVSS”, “high polyreactivity”. The result for “QVQLVESGGGLVQAGGSLRLSCAASGRTFSRNAMGWYRQAPGKERELVAGISWRGTSTYYADSVKGRFTISRDNAKNTVYLQMNSLKPEYTAVYYCNRVYEYWSEYDYWGQGTQVTVSS” reads “high polyreactivity”. To “QVQLVESGGGLVQAGGSLRLSCAASGRTFSRNAMGWYRQAPGKERELVATITSDGSTNYADSVKGRFTISRDNAKNTVYLQMNSLKPEDTSVYYCAADEASSRGYYDYDYWGQGTQVTVSS” belongs “low polyreactivity”; to “QVQLVESGGGLVQAGGSLRLSCAASGRTFSRYAMGWYRQAPGKERELVAAISYSGGRTYYADSVKGRFTISRDNAKNTVYLQMNSLKPEDTAVYYCAASWPGHTVDYDYWGQGTQVTVSS”, “high polyreactivity”.
